Reference: patent US20210107983A1 (Boehringer Ingelheim, published 2021)
Blank lines part the entries; values can stand above or below the binder they belong to.

Legend:
[1] = biological target: T1, human B7H6 on HCT-15 cells (human, UniProt Q68D85 25-454); assay: cell-based or functional assay
T1 sequence (looked up): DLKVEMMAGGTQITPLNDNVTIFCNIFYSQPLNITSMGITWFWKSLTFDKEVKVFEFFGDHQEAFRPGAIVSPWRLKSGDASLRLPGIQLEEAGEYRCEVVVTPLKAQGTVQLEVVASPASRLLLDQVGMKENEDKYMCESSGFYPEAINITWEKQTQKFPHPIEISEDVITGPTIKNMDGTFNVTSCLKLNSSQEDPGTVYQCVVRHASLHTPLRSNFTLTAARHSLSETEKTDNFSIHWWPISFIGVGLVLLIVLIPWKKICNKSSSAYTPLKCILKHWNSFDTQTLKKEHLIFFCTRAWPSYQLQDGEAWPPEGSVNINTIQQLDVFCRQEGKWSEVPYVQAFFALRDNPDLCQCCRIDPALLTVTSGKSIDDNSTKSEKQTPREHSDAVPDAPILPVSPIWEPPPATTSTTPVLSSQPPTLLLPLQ

[2] = biological target: T1, human B7H6 on HCT-15 cells; assay: flow cytometry on HCT-15 cells, PE anti-human secondary antibody
Method: Binding of B7H6/CD3 binding proteins to HCT-15, a human (colo-rectal cancer) CRC cell line was tested by flow cytometry. In a previous experiment, it has been confirmed that HCT-15 cells expresses B7-H6 on the RNA levels as well as the protein level with approximately 8,000 B7-H6 receptors on the cell surface (data not shown). B7H6/CD3 binding proteins were produced, as described in Example 2. HCT-15 cells were stained with increasing concentrations of two-step purified B7H6/CD3 binding proteins in FACS buffer (PBS/0.5% BSA/0.05% sodium azide). Bound molecules were detected with PE-conjugated anti-human secondary antibody (Sigma-Aldrich, #P8047).

[3] = biological target: T2, Fc-His-tagged human B7H6 ECD (human); assay: ELISA, plate coated with Fc-His-tagged human B7H6 ECD, anti-human IgG F(ab')2-peroxidase, TMB
T2 construct: also called huB7H6-ECD-Fc-His; recombinant human B7H6 ECD
Method: (§1) To assess binding of B7H6/CD3 binding proteins to recombinant human Fc-His-tagged B7H6 ECD and human Fc-His-tagged Ala-mutated B7H6 extracellular proteins as described in Example 3, MediSorp™ plates (Nunc, 467320) were coated with […] recombinant proteins overnight at 4° C. The next day, plates were blocked with 0.5% bovine serum albumin (BSA) in phosphate buffered saline (PBS) for 1 hour at room temperature (RT). Subsequently plates were washed with […] containing 0.05% TWEEN®20 viscous liquid and B7H6/CD3 binding proteins were incubated at concentrations ranging from 0.00001 to 10 μg/ml. After an additional washing step, bound B7H6/CD3 binding proteins were detected by a peroxidase conjugated goat anti-human IgG F(ab′)₂-specific secondary antibody (Jackson Immunoresearch) and visualized by TMB substrate solution (Bender Med Systems).

[4] = biological target: T3, Fc-His-tagged human Ala-mutated B7H6 ECD (human); assay: ELISA, plate coated with Fc-His-tagged human Ala-mutated B7H6 ECD, anti-human IgG F(ab')2-peroxidase, TMB
T3 construct: also called huB7H6-Ala-ECD
Method: as §1

B1: B7H6#10/CD3#1 (bispecific antibody, human IgG1, kappa, lambda, L234A L235A)
chain 1: DIQMTQSPSSVSASVGDRVTITCRASQGISSWLAWYQQKPGKAPKLLIYVASSLQRGVPSRFSGSGSGTDFTLTISNLQPEDFATYYCQQANSFPRTFGQGTKVEIKRTVAAPSVFIFPPSDEQLKSGTASVVCLLNNFYPREAKVQWKVDNALQSGNSQESVTEQDSKDSTYSLSSTLTLSKADYEKHKVYACEVTHQGLSSPVTKSFNRGECGGGGSEGKSSGSGSESKSTEGKSSGSGSESKSTGGGGSQVHLQESGPGLVKPSETLSLTCTVSGDSISSYYWSWIRQPAGKGLEWIGHIYTSEKNNYNPSLKSRVIMSVDTSKNQFSLNLSSVTAADTAVYYCARVGNWGSHDAWGQGTLVTVSSASTKGPSVFPLAPSSKSTSGGTAALGCLVKDYFPEPVTVSWNSGALTSGVHTFPAVLQSSGLYSLSSVVTVPSSSLGTQTYICNVNHKPSNTKVDKRVEPKSCDKTHTCPPCPAPEAAGGPSVFLFPPKPKDTLMISRTPEVTCVVVDVSHEDPEVKFNWYVDGVEVHNAKTKPREEQYNSTYRVVSVLTVLHQDWLNGKEYKCKVSNKALPAPIEKTISKAKGQPREPQVYTLPPSREEMTKNQVSLWCLVKGFYPSDIAVEWESNGQPENNYKTTPPVLDSDGSFFLYSKLTVDKSRWQQGNVFSCSVMHEALHNHYTQKSLSLSPG
chain 2: EAVVTQEPSLTVSPGGTVTLTCRSSTGAVTTSNYANWVQEKPGQLPRGLIGGTNKRAPWVPARFSGSLLGGKAALTLSGAQPEDEAEYFCALWYSNLWVFGGGTKLTVLGQPKAAPSVTLFPPSSEELQANKATLVCLISDFYPGAVKVAWKADGSPVNTGVETTTPSKQSNNKYAASSYLSLTPEQWKSHRSYSCQVTHEGSTVEKTVAPAECSGGGGSEGKSSGSGSESKSTEGKSSGSGSESKSTGGGGSEVQLVESGGGLVQPGGSLKLSCAASGFTFNTYAMNWVRQAPGKGLEWVARIRSKYNNYATYYADSVKDRFTISRDDSKNTAYLQMNNLKTEDTAVYYCVRHGNFGNSYVSWFAYWGQGTLVTVSAASTKGPSVFPLAPSSKSTSGGTAALGCLVKDYFPEPVTVSWNSGALTSGVHTFPAVLQSSGLYSLSSVVTVPSSSLGTQTYICNVNHKPSNTKVDKRVEPKSCDKTHTCPPCPAPEAAGGPSVFLFPPKPKDTLMISRTPEVTCVVVDVSHEDPEVKFNWYVDGVEVHNAKTKPREEQYNSTYRVVSVLTVLHQDWLNGKEYKCKVSNKALPAPIEKTISKAKGQPREPQVYTLPPSREEMTKNQVSLSCAVKGFYPSDIAVEWESNGQPENNYKTTPPVLDSDGSFFLVSKLTVDKSRWQQGNVFSCSVMHEALHNRFTQKSLSLSPG
notes: scFab-Fc heterodimer, one B7H6 chain and one CD3 chain
EC50 [nM], 72 hour cytotoxicity assay, non-stimulated T-cells (Donor #1) as effector cells, HCT-15 cells as target cells [1]: 0.53 nM | EC50 (read off the curve) [2]: ~0.9 nM | EC50 (read off the curve) [3]: ~0.05 µg/mL

B3: B7H6#7/CD3#1 (bispecific antibody, human IgG1, kappa, lambda, L234A L235A)
chain 1: DIQMTQSPSSVSASVGDRVTITCRASQGISSWLAWYQQKPGKAPNLLIYAASSLQSGVPSRFSGSGSGTDFTLTISSLQPEDFATYYCQQANSFPRTFGQGTKVEIKRTVAAPSVFIFPPSDEQLKSGTASVVCLLNNFYPREAKVQWKVDNALQSGNSQESVTEQDSKDSTYSLSSTLTLSKADYEKHKVYACEVTHQGLSSPVTKSFNRGECGGGGSEGKSSGSGSESKSTEGKSSGSGSESKSTGGGGSQVQLQESGPGLVKPSETLSLTYTVSGGSISYNYWSWIRQPPEKGLEWIGHIYYSGSTNYNPSLKSRVTISVDTSKNQFSLKLNSVTAADTAVYYCARVGTWGSFDDWGQGTLVTVSSASTKGPSVFPLAPSSKSTSGGTAALGCLVKDYFPEPVTVSWNSGALTSGVHTFPAVLQSSGLYSLSSVVTVPSSSLGTQTYICNVNHKPSNTKVDKRVEPKSCDKTHTCPPCPAPEAAGGPSVFLFPPKPKDTLMISRTPEVTCVVVDVSHEDPEVKFNWYVDGVEVHNAKTKPREEQYNSTYRVVSVLTVLHQDWLNGKEYKCKVSNKALPAPIEKTISKAKGQPREPQVYTLPPSREEMTKNQVSLWCLVKGFYPSDIAVEWESNGQPENNYKTTPPVLDSDGSFFLYSKLTVDKSRWQQGNVFSCSVMHEALHNHYTQKSLSLSPG
chain 2: B1 chain 2
notes: as for B1
EC50 [nM], 72 hour cytotoxicity assay, non-stimulated T-cells (Donor #1) as effector cells, HCT-15 cells as target cells [1]: 0.36 nM | EC50 (read off the curve) [2]: ~1 nM | EC50 (read off the curve) [3]: ~0.05 µg/mL

Now from value to binder, other results behind:

EC50 (read off the curve) [3]: ~0.05 µg/mL | EC50 (read off the curve) [4]: ~0.2 µg/mL
B2: B7H6#4/CD3#1 (bispecific antibody, human IgG1, kappa, lambda, L234A L235A)
chain 1: DIVMTQSQKFMSTSVGDRVSVTCKASQNVGKYVAWYQQKPGQSPKALIYSASNRYDGVPDRFTGSGSGTDFTLTITNVQSEDLTEYFCQQYISYPLTFGAGTKLELKRTVAAPSVFIFPPSDEQLKSGTASVVCLLNNFYPREAKVQWKVDNALQSGNSQESVTEQDSKDSTYSLSSTLTLSKADYEKHKVYACEVTHQGLSSPVTKSFNRGECGGGGSEGKSSGSGSESKSTEGKSSGSGSESKSTGGGGSQVQLQQPGSVLVRPGASVRLSCKASGYTFTNYWMNWMKQRPGQGLEWIGGIYLNGDSTDYNEKFKGKATLTVDTSSSTTYMDLSSLTYEDSAVYYCTTRGDYFGDFWGQGTTLTVSSASTKGPSVFPLAPSSKSTSGGTAALGCLVKDYFPEPVTVSWNSGALTSGVHTFPAVLQSSGLYSLSSVVTVPSSSLGTQTYICNVNHKPSNTKVDKRVEPKSCDKTHTCPPCPAPEAAGGPSVFLFPPKPKDTLMISRTPEVTCVVVDVSHEDPEVKFNWYVDGVEVHNAKTKPREEQYNSTYRVVSVLTVLHQDWLNGKEYKCKVSNKALPAPIEKTISKAKGQPREPQVYTLPPSREEMTKNQVSLWCLVKGFYPSDIAVEWESNGQPENNYKTTPPVLDSDGSFFLYSKLTVDKSRWQQGNVFSCSVMHEALHNHYTQKSLSLSPG
chain 2: B1 chain 2
notes: as for B1
EC50 [nM], 72 hour cytotoxicity assay, non-stimulated T-cells (Donor #1) as effector cells, HCT-15 cells as target cells [1]: 0.23 nM

EC50 (read off the curve) [3]: ~0.05 µg/mL | binding result [4]: no binding (tested: 10 µg/ml)
B4: B7H6#6/CD3#1 (bispecific antibody, human IgG1, kappa, lambda, L234A L235A)
chain 1: DIVMTQSPDSLPVSAGDRVTITCKASQSVSNDVVWYQQKPGQSPKLLMYSTSNRYIGVPDRFTGSGYGTDFTFTISTVQAEDLAVYFCQQDYSSPYTFGGGTKLEIKRTVAAPSVFIFPPSDEQLKSGTASVVCLLNNFYPREAKVQWKVDNALQSGNSQESVTEQDSKDSTYSLSSTLTLSKADYEKHKVYACEVTHQGLSSPVTKSFNRGECGGGGSEGKSSGSGSESKSTEGKSSGSGSESKSTGGGGSEVQLQQSGPELLKPGASVKISCKTSGYTFTDYTMHWVKQSHGKSLEWIGGINPNYDNTGYSEKFKDKATLTVDKSSSTAYMELRSLTSEDSAVYYCTRSGSRRSFYFDYWGQGTTLTVSSASTKGPSVFPLAPSSKSTSGGTAALGCLVKDYFPEPVTVSWNSGALTSGVHTFPAVLQSSGLYSLSSVVTVPSSSLGTQTYICNVNHKPSNTKVDKRVEPKSCDKTHTCPPCPAPEAAGGPSVFLFPPKPKDTLMISRTPEVTCVVVDVSHEDPEVKFNWYVDGVEVHNAKTKPREEQYNSTYRVVSVLTVLHQDWLNGKEYKCKVSNKALPAPIEKTISKAKGQPREPQVYTLPPSREEMTKNQVSLWCLVKGFYPSDIAVEWESNGQPENNYKTTPPVLDSDGSFFLYSKLTVDKSRWQQGNVFSCSVMHEALHNHYTQKSLSLSPG
chain 2: B1 chain 2
notes: as for B1
EC50 [nM], 72 hour cytotoxicity assay, non-stimulated T-cells (Donor #1) as effector cells, HCT-15 cells as target cells [1]: 0.46 nM
